In US20200399364A1 (PHANES THERAPEUTICS, published 2020):
Where a chain is given by its changes, count along the chain named.

B1: humanized anti-CLDN18.2 mAb 5-E22-H1L1 (antibody, V domains shown)
VH: QVQLVQSGVEVKKPGASVKVSCKASGYTITDNYMHWVRQAPGQGLEWIGEIYPGSGNTYFNEKFKNRATLTADKSTTTAYMELKSLQFDDTAVYFCARGFPYYAMDYWGQGTTVTVSS
VL: EIVMTQSPATLSLSPGERATLSCHARQNINVWLSWYQQKPGQAPRLLIYKASNLHTGVPARFSGSGSGTDFTLTISSLEPEDFAVYYCQQGQNYPLTFGGGTKVEIK
notes: Humanized VH and VL fused to the constant regions of human IgG1 heavy chain and kappa light chain
B2: humanized anti-CLDN18.2 mAb 5-E22-H1L3 (antibody, V domains shown)
VH: B1 VH
VL: DIVMTQSPLSLPVTPGEPASISCHARQNINVWLSWYLQKPGQSPQLLIYKASNLHTGVPDRFSGSGSGTDFTLKISRVEAEDVGVYYCQQGQNYPLTFGQGTKVEIK
notes: as for B1
B3: humanized anti-CLDN18.2 mAb 5-E22-H3L3 (antibody, V domains shown)
VH: B1 VH with V9A, F60Y, N61A, T76I, T77S, K84S, S85R, Q87R, F88S, T113L
VL: B2 VL
notes: as for B1
B4: humanized anti-CLDN18.2 mAb 5-E22-H3L1 (antibody, V domains shown)
VH: B1 VH with V9A, F60Y, N61A, T76I, T77S, K84S, S85R, Q87R, F88S, T113L
VL: B1 VL
notes: as for B1
B5: humanized anti-CLDN18.2 mAb 5-E22-H1L2 (antibody, V domains shown)
VH: B1 VH
VL: B1 VL with M4L, V58I
notes: as for B1
B6: humanized anti-CLDN18.2 mAb 5-E22-H3L2 (antibody, V domains shown)
VH: B1 VH with V9A, F60Y, N61A, T76I, T77S, K84S, S85R, Q87R, F88S, T113L
VL: B1 VL with M4L, V58I
notes: as for B1
B7: humanized anti-CLDN18.2 mAb 2-C3-H1L1 (antibody, V domains shown)
VH: QVTLRESGPALVKPTQTLTLTCTASGFTFSSYGMSWVRQPPGKALEWVATISGGGSYTYYNPSLKDRFTISRDISANQLVLKVTNMDPADTATYFCARQSRGNAMDYWGQGTTVTVSS
VL: DIQMTQSPSTLSASVGDRVTITCKSSQSLLNSGNQKNYLTWYQQKPGKAPKLLIYWASTRESGVPSRFSGSGSGTAFTLTISSLQPDDFATYYCQNDYSYPLTFGGGTKVEIK
notes: as for B1
B8: humanized anti-CLDN18.2 mAb 6-J11-H1L1 (antibody, V domains shown)
VH: EVQLVESGGGLVQPGGSLRLSCAASGFIFSSFGMHWVRQAPGKGLEWVAYISSGRSTMYYADSVKGRFTISRDNSKNTLYLQMNSLTAEDTAVYYCARGGFYGNSLDYWGQGTLVTVSS
VL: B7 VL with T10S, Q27L, A76D, D87E, Y93S, D97A, G106Q
notes: as for B1
B9: humanized anti-CLDN18.2 mAb 2-C3-H2L1 (antibody, V domains shown)
VH: B7 VH with A24F, V37I, V48L, N61L, P62D, A76K, L79V, K82T
VL: B7 VL
notes: as for B1
B10: humanized anti-CLDN18.2 mAb 6-J11-H2L1 (antibody, V domains shown)
VH: B8 VH with T87R, A88S
VL: B7 VL with T10S, Q27L, A76D, D87E, Y93S, D97A, G106Q
notes: as for B1
B11: humanized anti-CLDN18.2 mAb 2-C3-H2L2 (antibody, V domains shown)
VH: B7 VH with A24F, V37I, V48L, N61L, P62D, A76K, L79V, K82T
VL: B7 VL with A76E
notes: as for B1
B12: humanized anti-CLDN18.2 mAb 2-C3-H1L2 (antibody, V domains shown)
VH: B7 VH
VL: B7 VL with A76E
notes: as for B1

Target: T1, human claudin 18.2 (CLDN18.2) (human)
T1 construct: also called claudin 18 variant 2; claudin-18a2.1
Assay: FACS on HEK293-CLDN18.2 stable pool, FITC-based detection

T1 sequence (chain, as listed by the source limits assumed): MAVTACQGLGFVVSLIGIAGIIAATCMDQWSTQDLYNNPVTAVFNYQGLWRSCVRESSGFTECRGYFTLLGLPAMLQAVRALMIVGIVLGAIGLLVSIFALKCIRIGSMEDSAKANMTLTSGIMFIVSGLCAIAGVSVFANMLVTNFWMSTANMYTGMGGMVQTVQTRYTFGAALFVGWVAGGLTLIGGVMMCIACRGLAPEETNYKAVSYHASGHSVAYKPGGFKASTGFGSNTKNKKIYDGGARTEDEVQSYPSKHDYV

Row | EC50 [nM] | Binder
1 | 59 | B1
2 | 61 | B2
3 | 14.7 | B3
4 | 12.1 | B4
5 | 259 | B5
6 | 19.4 | B6
7 | 9.8 | B7
8 | 11.2 | B8
9 | 8.8 | B9
10 | 11.4 | B10
11 | 8 | B11
12 | 9.1 | B12
